Laboratory results taken from paper PMC5678579, “Clusterin protects neurons against intracellular proteotoxicity” (Acta Neuropathologica Communications, 2017).

Target: full length human TDP-43-turboGFP, in vitro translated (human, UniProt Q13148 1-414)
Experiment: cell-based or functional assay

Chain of full length human TDP-43-turboGFP, in vitro translated (Q13148 whole entry): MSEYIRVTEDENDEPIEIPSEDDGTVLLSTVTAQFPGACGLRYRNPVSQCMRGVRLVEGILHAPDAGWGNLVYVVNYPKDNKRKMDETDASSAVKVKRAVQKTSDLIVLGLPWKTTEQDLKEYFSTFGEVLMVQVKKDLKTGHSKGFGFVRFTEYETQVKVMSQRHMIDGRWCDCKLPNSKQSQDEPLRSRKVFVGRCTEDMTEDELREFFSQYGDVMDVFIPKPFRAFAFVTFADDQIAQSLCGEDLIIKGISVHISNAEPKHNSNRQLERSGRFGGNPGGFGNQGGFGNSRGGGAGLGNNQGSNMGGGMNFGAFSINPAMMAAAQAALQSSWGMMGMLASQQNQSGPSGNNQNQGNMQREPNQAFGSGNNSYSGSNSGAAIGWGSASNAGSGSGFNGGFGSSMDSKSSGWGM

soluble TDP-43-tGFP left after 4 h at 37 °C with 43 nM CLU, against 43 nM BSA (Western blot of the supernatant, densitometry): 8 fold
B1: clusterin (CLU) purified from human plasma (natural protein)
chain 1: DQTVSDNELQEMSNQGSKYVNKEIQNAVNGVKQIKTLIEKTNEERKTLLSNLEEAKKKKEDALNETRESETKLKELPGVCNETMMALWEECKPCLKQTCMKFYARVCRSGSGLVGRQLEEFLNQSSPFYFWMNGDRIDSLLENDRQQTHMLDVMQDHFSRASSIIDELFQDRFFTREPQDTYHYLPFSLPHRRPHFFFPKSRIVR
chain 2: SLMPFSPYEPLNFHAMFQPFLEMIHEAQQAMDIHFHSPAFQHPPTEFIREGDDDRTVCREIRHNSTGCLRMKDQCDKCREILSVDCSTNNPSQAKLRRELDESLQVAERLTRKYNELLKSYQWKMLNTSSLLEQLNEQFNWVSRLANLTQGEDQYYLRVTTVASHTSDSDVPSGVTEVVVKLFDSDPITVTVPVEVSRKNPKFMETVAEKALQEYRKKHREE
